The values below come from patent US6740739B1, “Substitutional variants of APO-2 ligand” (Genentech, Inc., priority 1998, dated 2004).

For one series, the system named is Jurkat cells. In words: Apoptosis by FACS (PI / FITC-annexin V). In kind it is cell-based, human. To be noted: Apo-2 ligand 3 μg/ml, 24 hours, control 5.9. The method, then:
(§1) The effects of the Apo-2 ligand on the 9D cells, as well as on Raji cells (human Burkitt's lymphoma B cell line, ATCC CCL 86) and Jurkat cells (human acute T cell leukemia cell line, ATCC TIB 152) were further analyzed by FACS. The FACS analysis was conducted, using established criteria for apoptotic cell death, namely, the relation of fluorescence staining of the cells with two markers: (a) propidium iodide (“PI”) dye, which stains apoptotic but not live cells, and (b) a fluorescent derivative of the protein, annexin V, which binds to the exposed phosphatidylserine found on the surface of apoptotic cells, but not on live cells [Darzynkiewicz et al., Methods in Cell Biol., 41:15-38 (1994); Fadok et al., J. Immunol., 148:2207-2216 (1992); Koopman et al., Blood, 84:1415-1420 (1994)].
(§2) The 9D cells (FIG. 2B), Raji cells (FIG. 2C), and Jurkat cells (FIG. 2D) were incubated (1×10^6 cells/well) for 24 hours with a media control (left panels), Apo-2 ligand (3 μg/ml, prepared as described in Example 3) (center panels), or anti-Apo-1 ligand antibody, CH11 (1 μg/ml) (right panels). The cells were then washed, stained with PI and with fluorescein thiocyanate (FITC)-conjugatedannexin V (purchased from Brand Applications) and analyzed by flow cytometry. […]

For another series, the system named is Raji cells. In words: Apoptosis by FACS (PI / FITC-annexin V). The format is cell-based, human. To be noted: Apo-2 ligand 3 μg/ml, 24 hours, control 35.9. The protocol:
as §1, §2

The next series relates to B lymphocytes. Put plainly: Apoptosis by FACS in peripheral blood B cells. The format is cell-based, human. Particulars: Apo-2 ligand 3 μg/ml, 3 days, mean ±SE. The protocol: Peripheral blood mononuclear cells (“PBMC&”) were isolated from the blood of human donors by Ficoll density gradient centrifugation using Lymphocyte Separation Medium (LSM®, Organon Teknika). An isolated population of T cells was prepared from the PBMC by removal of B cells through surface Ig binding to an anti-Ig column and removal of monocytes through Fc receptor binding to an Ig column (R & D Systems). An isolated population of B cells was prepared from the PBMC by complement-mediatedelimination of T cells reacted with the anti-CD3 antibody produced by the OKT3 myeloma (ATCC, CRL 8001) and of monocytes reacted with a monocyte-specific antibody produced by the 4F2C13 hybridoma (ATCC, HB 22). Additional monocyte removal was accomplished by adherence to plastic.
The freshly isolated peripheral blood B or T cells (1×10^6 cells/well) were cultured for 3 days in the presence of a media control or Apo-2 ligand (3 μg/ml, prepared as described in Example 3). […] Apoptosis was determined using FACS analysis essentially as described above in Example 4. […] The results are shown in Table 2 below, representing means ±SE of independent experiments [B lymphocytes—9 experiments; T lymphocytes—8 experiments; T lymphocytes plus IL-2-5 experiments], in which 50,000 cells were analyzed per data point. […]

A further series deals with HeLa. Put plainly: Cell viability by crystal violet staining. The format is cell-based, human. The protocol: (§3) The following human tumor cell lines were assayed: A549 (lung carcinoma, ATCC CCL 185); HCT116 (colon carcinoma, ATCC CCL 247); SW480 (colon adenocarcinoma, ATCC CCL 228); MDA231 (breast adenocarcinoma, ATCC HTB 26); HeLa (cervical carcinoma, ATCC CCL 22); ME-180 (cervical carcinoma, ATCC HTB 33); T24 (bladder carcinoma. ATCC HTB 4); SK-N-AS (neuroblastoma, White et al., Proc. Natl. Acad. Sci., 92:5520-5524 (1995)). The cells were plated at 2.5×10^5 cells/ml in 96 well plates and incubated overnight. The cells were cultured in the presence of 2-fold dilutions of Apo-2 ligand (ranging from 100 ng/ml to 0.01 ng/ml). In some of the cultures, a chemotherapeuticagent was also added for 24 hours-cyclohexamide (“CHX”) (50 μg/ml; Sigma Chemicals), Doxorubicin (10-100 μg/ml; Pharmacia), or 5-FU (6 mg/ml; Roche).
(§4) After 24 hours of incubation, the cells were stained with 0.5% crystal-violetin 20% methanol. Cell viability was determined by eluting the dye from the stained cells with 0.1M sodium citrate (0.1M citric acid in 50% methanol), and measuring absorbance at 540 nm.

The subject of another series is SK-N-AS. Put plainly: Cell viability by crystal violet staining. In kind it is cell-based, human. Particulars: SK-N-AS neuroblastoma, p53 ?; 24 h. The method, then: as §3, §4
A short description of series [1]: Examination of infused animals for gross toxicity. The format is in vivo, nude mice. To be noted: E. coli-expressed Apo-2 ligand 10 mg/kg each day by mini-pump; Day 3. The protocol: In the experiment, the nude mice were injected subcutaneously with HCT116 human colon carcinoma cells (ATCC CCL 247) (1×10^6 cells) on each side of the animal. The tumors were then allowed to grow to reach approximately 1 cm diameter (approximately 10 days). On Day 0, the tumor volume was measured with calipers. Volume was calculated as π/6×ab^2, where a=length and b=width. Then osmotic mini-pumps (available from Alza Corp., Model 1003) were implanted intraperitoncally into each animal. The mini-pumps were loaded with either (1) control vehicle (20 mM Tris pH 7.5, 8% Trehalose. 0.01% Tween-20) or (2) Apo-2 ligand. Five animals in each group received either the control vehicle or Apo-2 ligand. The mini-pumps were calibrated to deliver each day 10 mg/kg Apo-2 ligand (10 mg/ml×2 μl/hour) or 2 μl/hour control vehicle.
On Day 3, the tumor volume was again measured, and the animals were sacrificed. […] There was no change in tumor volume in the vehicle group, but a marked reduction in tumor size occurred in mice infused with the Apo-2L. The treatment with the Apo-2L shrunk the tumors by about 50% over 3 days.

B1: Apo-2L: purified soluble His10-tagged human Apo-2 ligand, residues 114-281, from baculovirus-infected Sf9 cells (Example 3); used in Examples 4-14 (protein)
chain: MGHHHHHHHHHHSSGHIDDDDKHMVRERGPQRVAAHITGTRGRSNTLSSPNSKNEKALGRKINSWESSRSGHSFLSNLHLRNGELVIHEKGFYYIYSQTYFRFQEEIKENTKNDKQMVQYIYKYTSYPDPILLMKSARNSCWSKDAEYGLYSIYQGGIFELKENDRIFVSVTNEHLIDMDHEASFFGAFLVG
Take B1: the figures for the “% apoptotic cells” value in the series on Jurkat cells and in the series with Raji cells were 77.0% and 73.4%, respectively. Further, the “% apoptolic cells” value with B lymphocytes (LPS 1 μg/ml, control 44.8 ± 2.8, a=p<0.05) is 55.9 ± 3.2^a %; with B lymphocytes (treatment none, control 40.1 ± 4.1, a=p<0.05), 53.2 ± 3.3^a %. Further, the “Apo-2L SENSITIVITY” value in the series with HeLa (HeLa cervical carcinoma, p53 mut, 24 h) is listed as “+ (>35% death after 24 h with 100 ng/ml Apo-2)”; with SK-N-AS it was “+ (>35% death after 24 h with 100 ng/ml Apo-2)”. In addition, in the series with HeLa (HeLa, cyclohexamide 50 μg/ml, 24 hours), the “Apo-2L sensitivity ENHANCED BY CHX” value is “yes”. Also, the “gross evidence of toxicity” value in series [1] is recorded as “did not reveal any gross evidence of toxicity”.
